Source: patent US20260242478A1 (published 2026)
Where no end group is shown, it is not given here.

B1: Phage-3613, clonal phage showing a Peptide-180 library peptide (peptide)
peptide: ETMRCEPSWMCIGL
notes: Tested as crude clonal phage supernatant; not shown: pIII filament protein of the bacteriophage, fused to the peptide
B2: Phage-3609, clonal phage showing a Peptide-180 library peptide (peptide)
peptide: SHMVCKPTWMCQGF
notes: as for B1
B3: Phage-3606, clonal phage showing a Peptide-180 library peptide (peptide)
peptide: VVVSCTPSWMCTGL
notes: as for B1
B4: Phage-3607, clonal phage showing a Peptide-180 library peptide (peptide)
peptide: LDIVCRPSWMCYGF
notes: as for B1
B5: Phage-3615, clonal phage showing a Peptide-180 library peptide (peptide)
peptide: LDRLCLPQWMCVGM
notes: as for B1
B6: Phage-3608, clonal phage showing a Peptide-180 library peptide (peptide)
peptide: ETVRCIPSWMCTGL
notes: as for B1
B7: Phage-3611, clonal phage showing a Peptide-180 library peptide (peptide)
peptide: VDRLCMPIWMCEGL
notes: as for B1
B8: Phage-3612, clonal phage showing a Peptide-180 library peptide (peptide)
peptide: DPVMCMPRWMCDGF
notes: as for B1
B9: Phage-3614, clonal phage showing a Peptide-180 library peptide (peptide)
peptide: GWEWCIPEWMCTGL
notes: as for B1
B10: Phage-3605, clonal phage showing a Peptide-180 library peptide (peptide)
peptide: WTFKCEPVWMCEGF
notes: as for B1
B11: Phage-3617, clonal phage showing a Peptide-180 library peptide (peptide)
peptide: DFIRCSPIWMCDGF
notes: as for B1
B12: Phage-3604, clonal phage showing a Peptide-180 library peptide (peptide)
peptide: HVAMCQPTWMCMGF
modifications: cysteine pairing not given here; also: fused to pIII of bacteriophage, junction and order not given here
notes: as for B1
B13: Phage-3610, clonal phage showing a Peptide-180 library peptide (peptide)
peptide: VQPACVPIWMCDGL
notes: as for B1
B14: Phage-3616, clonal phage showing a Peptide-180 library peptide (peptide)
peptide: ESRLCVPMWMCSGF
notes: as for B1

How the values were obtained:
PSMA Fab [1] = molecular target: T1, PSMA Fab (biotinylated (site not stated)); assay: clonal phage ELISA on captured PSMA Fab, competitor PSMA antigen pre-incubated
T1 construct: Biotinylated PSMA Fab captured on neutravidin coated plates in the phage ELISA; also called Anti-PSMA Fab; 006 PSMA Fab

PSMA Fab [2] = molecular target: T1, PSMA Fab; assay: clonal phage ELISA on biotinylated PSMA Fab captured on neutravidin, anti-M13 HRP detection;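 also: crude clonal phage supernatants added to wells pretreated with PSMA antigen in blocking buffer or with blocking buffer only, then briefly incubated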
Description: (§1) Clonal phage were harvested as crude supernatants and screened via standard ELISAs. […] Prior to the addition of clonal phage. wells were incubated with blocking buffer and PSMA antigen or blocking buffer alone. Without washing or aspirating, clonal phage supernatants were then added to the wells and incubated for a short time. Wells were then washed followed by detection of bound phage using a horse radish conjugated anti-M13 antibody.

[3] = molecular target: T2, PSMA Fab (SEQ ID NOs: 19, 20) (biotinylated (site not stated)); assay: clonal phage ELISA on captured biotinylated PSMA Fab, anti-M13-HRP detection, no PSMA antigen
T2 construct: In the phage ELISA the biotinylated PSMA Fab was captured on neutravidin coated plates; also called Anti-PSMA Fab; 006 PSMA Fab

[4] = molecular target: T2, PSMA Fab (SEQ ID NOs: 19, 20); assay: clonal phage ELISA on captured biotinylated PSMA Fab, anti-M13-HRP detection, competitor: PSMA antigen pre-incubated
Description: as §1

[5] = molecular target: T3, PSMA Fab (006 PSMA Fab), biotinylated (biotinylated (site and chain not stated)); assay: phage ELISA; biotinylated PSMA Fab on neutravidin plate, blocking buffer alone, bound phage detected with HRP anti-M13 antibody
T3 construct: also called Anti-PSMA Fab; anti-PSMA Fab

[6] = molecular target: T3, PSMA Fab (006 PSMA Fab), biotinylated; assay: phage ELISA; biotinylated PSMA Fab on neutravidin plate, wells first incubated with PSMA antigen as competitor, HRP anti-M13 detection
Description: as §1

PSMA Fab (006 PSMA Fab) [7] = molecular target: T4, PSMA Fab (006 PSMA Fab); assay: clonal phage ELISA on captured PSMA Fab, wells pre-incubated with PSMA antigen as competitor
T4 construct: also called Anti-PSMA Fab; anti-PSMA Fab
Description: as §1

PSMA Fab (006 PSMA Fab) [8] = molecular target: T4, PSMA Fab (006 PSMA Fab); assay: clonal phage ELISA on biotinylated PSMA Fab captured on neutravidin, blocking buffer alone, anti-M13 HRP detection;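 also: clonal phage were tested as crude supernatants, and the signal reflects phage still bound to the wells after washing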
Description: as §1

Row | Binder | Phage binding ELISA signal, Anti-PSMA Fab with PSMA antigen (PSMA Fab [1]) | Phage binding ELISA signal, Anti-PSMA Fab (PSMA Fab [2]) | phage binding ELISA signal [3] | phage binding ELISA signal [4] | Phage binding ELISA signal, Anti-PSMA Fab [5] | Phage binding ELISA signal, Anti-PSMA Fab with PSMA antigen [6] | further results
1 | QGVACIPTWMCTGF [Phage-3595] | 0.0711 | 1.59 | – | – | – | – | –
2 | YPPLCVPMWMCNGF [Phage-3639] | – | – | 1.53 | 0.107 | – | – | –
3 | B1 | – | – | – | – | 1.57 | 0.0724 | –
4 | LERLCRPAWMCDGF [Phage-3596] | 0.136 | 1.59 | – | – | – | – | –
5 | B2 | – | – | – | – | 1.58 | 0.074 | –
6 | EIPWCVPSWMCNYF [Phage-3597] | 0.0904 | 1.59 | – | – | – | – | –
7 | B3 | – | – | – | – | 1.58 | 0.0718 | –
8 | AEVKCIPTWMCTGF [Phage-3637] | – | – | 1.53 | 0.079 | – | – | –
9 | VEKMCKPAWMCNVF [Phage-3592] | 0.0777 | 1.6 | – | – | – | – | –
10 | SNMVCIPSWMCNGF [Phage-3641] | – | – | 1.53 | 0.0754 | – | – | –
11 | B4 | – | – | – | – | 1.58 | 0.0774 | –
12 | MVPVCIPLWMCSGF [Phage-3647 (Peptide-180 library clone)] | – | – | – | – | – | – | phage binding ELISA signal on anti-PSMA Fab in presence of PSMA (PSMA Fab (006 PSMA Fab) [7]): 0.0744; phage binding ELISA signal on anti-PSMA Fab (PSMA Fab (006 PSMA Fab) [8]): 1.51
13 | WEVRCEPAWMCIGL [Phage-3600] | 0.0694 | 1.59 | – | – | – | – | –
14 | B5 | – | – | – | – | 1.57 | 0.0704 | –
15 | EELMCRPVWMCLGF [Phage-3591] | 0.0789 | 1.6 | – | – | – | – | –
16 | VETLCRPAWMCWGF [Phage-3598] | 0.0788 | 1.59 | – | – | – | – | –
17 | EVAMCKPLWMCSGF [Phage-3635] | – | – | 1.53 | 0.069 | – | – | –
18 | PDPLCVPNWMCIGL [Phage-3593] | 0.0686 | 1.6 | – | – | – | – | –
19 | B6 | – | – | – | – | 1.58 | 0.0717 | –
20 | ELILCRPSWMCTGL [Phage-3632] | – | – | 1.54 | 0.0672 | – | – | –
21 | VEPLCRPTWMCMSL [Phage-3636] | – | – | 1.53 | 0.0766 | – | – | –
22 | VDVRCMPLWMCSGF [Phage-3645 (Peptide-180 library clone)] | – | – | – | – | – | – | phage binding ELISA signal on anti-PSMA Fab in presence of PSMA (PSMA Fab (006 PSMA Fab) [7]): 0.0628; phage binding ELISA signal on anti-PSMA Fab (PSMA Fab (006 PSMA Fab) [8]): 1.52
23 | B7 | – | – | – | – | 1.58 | 0.0788 | –

Row | Binder | Phage binding ELISA signal, Anti-PSMA Fab with PSMA antigen (PSMA Fab [1]) | Phage binding ELISA signal, Anti-PSMA Fab (PSMA Fab [2]) | phage binding ELISA signal [3] | phage binding ELISA signal [4] | Phage binding ELISA signal, Anti-PSMA Fab [5] | Phage binding ELISA signal, Anti-PSMA Fab with PSMA antigen [6] | further results
24 | HEPVCKPSWMCTGL [Phage-3602] | 0.0595 | 1.58 | – | – | – | – | –
25 | B8 | – | – | – | – | 1.57 | 0.0916 | –
26 | LVNYCIPPWMCAGF [Phage-3631] | – | – | 1.54 | 0.093 | – | – | –
27 | EGLRCVPAWMCAGF [Phage-3603] | 0.0633 | 1.58 | – | – | – | – | –
28 | FPAMCKPSWMCTGF [Phage-3640] | – | – | 1.53 | 0.082 | – | – | –
29 | B9 | – | – | – | – | 1.57 | 0.0625 | –
30 | MPGACVPLWMCYGF [Phage-3590] | 0.0685 | 1.6 | – | – | – | – | –
31 | QDLKCVPSWMCSGF [Phage-3599] | 0.0713 | 1.59 | – | – | – | – | –
32 | B10 | – | – | – | – | 1.58 | 0.101 | –
33 | GTTWCVPTWMCEGL [Phage-3634] | – | – | 1.54 | 0.077 | – | – | –
34 | SHALCRPAWMCMGL [Phage-3633] | – | – | 1.54 | 0.0783 | – | – | –
35 | VTMKCQPMWMCQGL [Phage-3642] | – | – | 1.52 | 0.0738 | – | – | –
36 | TEIRCQPQWMCHGF [Phage-3594] | 0.0698 | 1.6 | – | – | – | – | –
37 | VHQLCIPVWMCSGF [Phage-3638] | – | – | 1.53 | 0.0996 | – | – | –
38 | VMHRCEPSWMCWGF [Phage-3601] | 0.118 | 1.58 | – | – | – | – | –
39 | TAVMCIPYWMCGGM [Phage-3646 (Peptide-180 library clone)] | – | – | – | – | – | – | phage binding ELISA signal on anti-PSMA Fab in presence of PSMA (PSMA Fab (006 PSMA Fab) [7]): 0.104; phage binding ELISA signal on anti-PSMA Fab (PSMA Fab (006 PSMA Fab) [8]): 1.52
40 | PNILCKPQWMCAGF [Phage-3644] | – | – | 1.52 | 0.0825 | – | – | –
41 | B11 | – | – | – | – | 1.57 | 0.0807 | –
42 | B12 | – | – | – | – | 1.58 | 0.123 | –
43 | ADRVCKPAWMCDLF [Phage-3643] | – | – | 1.52 | 0.0527 | – | – | –
44 | B13 | – | – | – | – | 1.58 | 0.0782 | –
45 | B14 | – | – | – | – | 1.57 | 0.0707 | –
